# Experiments:
# GPCR135 [1] = target: T1, GPCR135 (Homo sapiens, UniProt Q9NSD7); assay: Radioligand competition binding with 125I-relaxin3, COS-7 cell membranes; parameters: expressed in transfected cells; host or cells: COS-7 (membranes); settings: COS-7 membranes, 100 pM radioligand
# T1 sequence (Q9NSD7 1-469): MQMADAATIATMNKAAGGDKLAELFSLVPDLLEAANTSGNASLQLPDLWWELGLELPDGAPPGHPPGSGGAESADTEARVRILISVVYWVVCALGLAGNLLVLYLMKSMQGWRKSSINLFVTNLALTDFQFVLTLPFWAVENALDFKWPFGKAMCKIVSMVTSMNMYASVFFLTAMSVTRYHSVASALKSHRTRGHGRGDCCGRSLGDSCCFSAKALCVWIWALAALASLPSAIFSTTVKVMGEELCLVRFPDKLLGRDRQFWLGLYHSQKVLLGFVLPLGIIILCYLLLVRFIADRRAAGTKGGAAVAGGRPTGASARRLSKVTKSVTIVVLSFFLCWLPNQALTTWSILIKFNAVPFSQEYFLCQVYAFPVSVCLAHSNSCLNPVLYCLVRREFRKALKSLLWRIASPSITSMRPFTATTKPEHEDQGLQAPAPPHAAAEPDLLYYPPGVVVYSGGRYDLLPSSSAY
# Procedure: Cell membranes from COS-7 cells transiently expressing GPCR142 were incubated with ^125I-relaxin3 either in the presence or absence of various concentrations of different competitors in 96-well plates at a final volume of 200 μL in binding buffer: 50 mM Tris-HCl (pH 7.4), 2 mM EDTA plus 0.5% BSA. The binding mixtures were incubated at room temperature for 1 h and then were filtered through 96-well GFC plates (Packard) and washed with ice-cold washing buffer: 50 mM Tris-HCl, pH 7.4. Fifty microliters of Microscint-40 were added to each well and the plates were counted in a Topcounter NTX (Packard). The radioligand binding results were analyzed using GraphPad PRISM software.
# This binding assay was also performed using GPCR135.
# To characterize INSL5 as the possible ligand for GPCR135 and GPCR142, cell membranes from COS-7 cells transiently expressing human GPCR135 or GPCR142 were used in the radioligand binding assays using [^125I)-relaxin3 as the radioligand as described by Liu et al. (2003a, 2003b). […] The binding assays were performed at room temperature for an incubation time of one hour. The binding mixtures were then filtered through GFC filters pre-saturated with 0.3 polyethylenimine (Sigma) and washed with cold binding buffer. The bound radioligand was counted in a top counter (TopCount/NTX, Packard) with Microscint-40. The results were analyzed by Prism 3.0 software.
# GPCR135 [2] = target: T1, GPCR135; assay: Ca2+ mobilization assay, HEK293 cells co-expressing GPCR135 and Gα16; assay type: cell-based; parameters: expressed in transfected cells; host or cells: HEK293 with Gα16 or Gqi5 (Ca2+)
# [3] = test system: HEK293 cells transfected by Gα16 alone; assay: Ca2+ mobilization assay, HEK293 cells transfected by Gα16 alone; assay type: cell-based, human; settings: cells expressing Gα16 alone (no receptor)
# Procedure: (§1) Human embryonic kidney (HEK) 293 cells were transfected with GPCR135,.GPCR142 or co-transfected with Gqi5 (Conklin et al. (1993), Nature 363, 274-280) or Gα16 (Amatruda et al. (1991), Proc. Natl. Acad. Sci. U.S.A. 88, 5587-5591) expressing plasmids using LipofectAmine. Two days after transfection, cells were detached with PBS plus 10 mM EDTA. The detached cells were washed with DMEM-F12 medium (without phenol red, Invitrogen) and seeded in black poly-D lysine coated 96-well plates (BD Biosciences, San Jose, Calif.) at a cell density of 50,000 cell/well.
# GPCR142 [4] = target: T2, GPCR142 (Homo sapiens, UniProt Q8TDU9, L329S); assay: Radioligand binding assay with 125I-relaxin3 (saturation and competition), COS-7 cell membranes; parameters: The complete coding region of human GPCR142 was PCR-amplified from human genomic DNA; expressed in transfected cells; settings: competition binding, COS-7 membranes; listed as unlabeled relaxin3
# T2 sequence (Q8TDU9 whole entry L329S): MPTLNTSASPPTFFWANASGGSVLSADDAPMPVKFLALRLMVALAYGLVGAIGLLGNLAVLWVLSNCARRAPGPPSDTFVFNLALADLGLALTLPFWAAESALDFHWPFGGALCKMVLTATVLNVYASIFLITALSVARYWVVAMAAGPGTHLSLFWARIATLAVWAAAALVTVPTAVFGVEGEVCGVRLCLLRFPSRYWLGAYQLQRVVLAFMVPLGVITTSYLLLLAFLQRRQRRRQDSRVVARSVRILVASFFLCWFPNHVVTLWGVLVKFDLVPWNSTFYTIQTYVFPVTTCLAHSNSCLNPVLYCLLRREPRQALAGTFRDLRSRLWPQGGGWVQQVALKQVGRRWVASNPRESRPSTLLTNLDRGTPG
# Procedure: The binding mixtures were incubated at room temperature for 1 h and then were filtered through 96-well GFC plates (Packard) and washed with ice-cold washing buffer: 50 mM Tris-HCl, pH 7.4. Fifty microliters of Microscint-40 were added to each well and the plates were counted in a Topcounter NTX (Packard). The radioligand binding results were analyzed using GraphPad PRISM software.
# The binding assays were performed at room temperature for an incubation time of one hour. The binding mixtures were then filtered through GFC filters pre-saturated with 0.3 polyethylenimine (Sigma) and washed with cold binding buffer. The bound radioligand was counted in a top counter (TopCount/NTX, Packard) with Microscint-40. The results were analyzed by Prism 3.0 software.
# GPCR142 [5] = target: T2, GPCR142; assay: Inhibition of forskolin-stimulated cAMP (CRE-β-galactosidase) in SK-N-MC cells; assay type: cell-based; parameters: The complete coding region of human GPCR142 was PCR-amplified from human genomic DNA; expressed in transfected cells; HEK293 co-transfected with Gqi5 (Ca2+); settings: SK-N-MC cells stably expressing GPCR142
# Procedure: SK-N-MC cells stably expressing GPCR142 were established by transfection of GPCR142 expressing plasmids into SK-N-MC cells harboring a β-galactosidase gene under control of multiple cAMP responsive elements. The stable transfectants were selected by culturing the transfected cells under G418 selection (400 mg/L). The receptor expressing cells were seeded in 96-well plates at a cell density of 30,000 cells/well. After 24 h, cells were stimulated with forskolin or different peptides. Cells were cultured for an additional 6 h and the intracellular β-gal activity, which represents the intracellular cAMP accumulation, was measured as described by Liu et al. (2000), Mol. Pharmacol., 59, 420-426.
# GPCR135 [6] = target: T1, GPCR135; assay: Ca2+ mobilization assay, 293 cells co-expressing GPCR135 and Gqi5; assay type: cell-based
# Procedure: as §1
substance,measurement,setting,value
"relaxin3: Human relaxin3 (SEQ ID NO: 6), produced recombinantly; mature peptide of A- and B-chain linked by disulfide bridges",displacement of 125I-relaxin3 binding to GPCR135,GPCR135 [1],specifically displaced
same,stimulation of Ca2+ mobilization,GPCR135 [2],stimulated Ca2+ mobilization
same,stimulation of Ca2+ mobilization,GPCR135 [2]; listed as Relaxin3,stimulated Ca^2+ mobilization
same,stimulation of Ca2+ mobilization,[3],did not respond
same,displacement of 125I-relaxin3 binding to GPCR142,GPCR142 [4],specifically displaced
same,inhibition of forskolin induced β-galactosidase expression,GPCR142 [5],dose-dependently inhibits
same,stimulation of Ca2+ mobilization,GPCR135 [6],stimulates Ca^2+ mobilization

# — patent publication US20050059089A1 (priority 2003, published 2005)
